The results in this text go back to patent US20120288494A1 (published 2012).

Assay [1] deals with T1, Human Chimera 9 (human IL-12 p40 G35D & G61L) (human, UniProt P29460 23-328).
T1 construct: Predominantly human p40 with rat residues; the two residues were only mutated together; also called Sites 9, 10
T1 chain: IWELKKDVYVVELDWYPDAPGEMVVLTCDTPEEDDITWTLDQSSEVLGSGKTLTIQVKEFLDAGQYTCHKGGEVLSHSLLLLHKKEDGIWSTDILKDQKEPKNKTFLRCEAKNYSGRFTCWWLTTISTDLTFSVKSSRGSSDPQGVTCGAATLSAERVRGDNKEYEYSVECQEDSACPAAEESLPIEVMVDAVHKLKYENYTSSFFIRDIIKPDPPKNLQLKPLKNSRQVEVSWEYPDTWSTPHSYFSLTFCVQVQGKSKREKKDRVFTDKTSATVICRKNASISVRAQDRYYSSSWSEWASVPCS
The assay can be described thus: SPR (Biacore), mAb immobilised; grade of the mutation's effect: - = no effect. A general note: Surface plasmon resonance follows binding to a sensor surface in real time, without labels.
Description: (§1) Specifically, antibody was covalently linked via free amine groups to the Biacore chip dextran matrix by first activating carboxyl groups on the matrix with 100 mM N-hydroxysuccinimide (NHS) and 400 mM N-Ethyl-N′-(3-dimethylaminopropyl)-carbodiimide hydrochloride (EDC). This was completed across four different flow cells. […] Typically, 5000 resonance units were immobilized. Unreacted matrix EDC-esters were deactivated by an injection of 1 M ethanolamine.
(§2) To ascertain the epitope pattern of several different monoclonal antibodies against IL-12p40 supernatant samples, a direct binding assay was conducted. Aliquots of recombinant human IL-12p40 (100 nM) were injected across covalently immobilized antibody on the Biacore dextran chip biosensor surface at a flow rate of 25 mL/min. Before injection of the antigen and immediately afterward, HBS-EP buffer alone flowed through each flow cell. […] The response was measured in Resonance Units (RU's). […] The covalently immobilized antibody-coupled surfaces were completely regenerated using 10 mM HCl (5 min contact time) and retained their full binding capacity over twenty cycles.

Assay [2] concerns the target T2, human IL-12 p70 (human, UniProt P29460 23-328; P29459 23-219).
T2 construct: also called hIL-12; IL-12 p70 (p40/p35)
T2 sequence 1: T1 chain with D35G, L61G
T2 sequence 2: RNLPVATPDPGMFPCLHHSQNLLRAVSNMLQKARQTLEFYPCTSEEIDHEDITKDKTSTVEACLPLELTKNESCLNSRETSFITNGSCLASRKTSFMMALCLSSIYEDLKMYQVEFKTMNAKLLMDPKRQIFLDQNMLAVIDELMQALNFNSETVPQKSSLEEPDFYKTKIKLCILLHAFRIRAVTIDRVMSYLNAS
The assay can be described thus: method not stated in the sentence (Biacore named in Example 1A).

The target in assay [3] is T3, Human Chimera 2 (human IL-12 p40 D87N) (human, UniProt P29460 23-328).
T3 construct: Predominantly human p40 with the rat residue; HEK293.F supernatant; also called Site 7b
T3 sequence: T1 chain with D35G, L61G, D87N
The assay can be described thus: SPR (Biacore), mAb immobilised, chimera supernatant injected.
Description: as §1, §2

Assay [4] addresses T4, Human Chimera 1 (human IL-12 p40 Y16R) (human, UniProt P29460 23-328).
T4 construct: Predominantly human p40 with the rat residue; HEK293.F supernatant; also called Site 7a
T4 sequence: T1 chain with Y16R, D35G, L61G
The description is as above.
Description: as §1, §2

The target of assay [5] is T2, human IL-12 p70. The assay can be described thus: not stated in the sentence (FIG. 2).

Residue numbers refer to the chain shown, from its start.

B1: J695 (antibody, IgG1, V domains shown)
VH: QVQLVESGGGVVQPGRSLRLSCAASGFTFSSYGMHWVRQAPGKGLEWVAFIRYDGSNKYYADSVKGRFTISRDNSKNTLYLQMNSLRAEDTAVYYCKTHGSHDNWGQGTMVTVSS
VL: QSVLTQPPSVSGAPGQRVTISCSGSRSNIGSNTVKWYQQLPGTAPKLLIYYNDQRPSGVPDRFSGSKSGTSASLAITGLQAEDEADYYCQSYDRYTHPALLFGTGTKVTVLG
notes: Recombinant human mAb from CHO cells, IgG1 heavy and lambda light chain constant regions; also called human mAb J695
As a reminder, the Kd is a measure of binding affinity in units of concentration. Read a high Kd as lower affinity. On to B1, for which the results for the binding result in assay [1], in assay [3] and in assay [4] were “binds”, “no binding” and “no binding”, respectively. In assay [2], the Kd came out at 0.102 nM.

B2: 103-14 (antibody, V domains shown)
VH: B1 VH with E6Q, N84K
VL: SYVLTQPPSVSGTPGQRVTISCSGGRSNIGSNTVKWYQQLPGTAPKLLIYGNDQRPSGVPDRFSGSKSGTSASLAITGVQAEDEADYYCQSYDRGFTGSMVFGTGTKVTVL
Consider B2, for which, in assay [5], the “fold increase in efficacy over Joe 9” value was 1000 fold.
